{"source": "paper PMC3597468", "about": "(Journal of controlled release : official journal of the …, 2012)", "proteins": {"B1": {"name": "Catalase, from bovine liver (enzyme, UniProt P00432 1-527, looked up)", "chain": "MADNRDPASDQMKHWKEQRAAQKPDVLTTGGGNPVGDKLNSLTVGPRGPLLVQDVVFTDEMAHFDRERIPERVVHAKGAGAFGYFEVTHDITRYSKAKVFEHIGKRTPIAVRFSTVAGESGSADTVRDPRGFAVKFYTEDGNWDLVGNNTPIFFIRDALLFPSFIHSQKRNPQTHLKDPDMVWDFWSLRPESLHQVSFLFSDRGIPDGHRHMNGYGSHTFKLVNANGEAVYCKFHYKTDQGIKNLSVEDAARLAHEDPDYGLRDLFNAIATGNYPSWTLYIQVMTFSEAEIFPFNPFDLTKVWPHGDYPLIPVGKLVLNRNPVNYFAEVEQLAFDPSNMPPGIEPSPDKMLQGRLFAYPDTHRHRLGPNYLQIPVNCPYRARVANYQRDGPMCMMDNQGGAPNYYPNSFSAPEHQPSALEHRTHFSGDVQRFNSANDDNVTQVRTFYLKVLNEEQRKRLCENIAGHLKDAQLFIQKKAVKNFSDVHPEYGSRIQALLDKYNEEKPKNAVHTYVQHGSHLSAREKANL"}}, "biological_target": "the molecule itself", "experiment": "cross-linking"}
{"protein": "B1", "values": [{"measurement": "binding result", "value": "binds"}]}
